Publication PMC12102758

Molecular target: SkSGL from Sanguibacter keddieii fused with a His6-tag at the C-terminus (Group 2 / GH193 β-1,2-glucanase) (Sanguibacter keddieii)
Test: SEC; Superdex 200 (HiLoad 16/60), 20 mM Tris-HCl (pH 7.5) in place of 50 mM Tris-HCl (pH 8.0); size by protein markers

stoichiometry N: 2
Substance: SkSGL from Sanguibacter keddieii fused with a His6-tag at the C-terminus (Group 2 / GH193 β-1,2-glucanase) (enzyme)
